The target in this assay is T1, GST-SMAD4 (full-length, WT) (human, UniProt Q13485 1-552).
T1 construct: SMAD4, human, Human ORFeome V8.1 clone; Gateway mammalian GST expression vector (Li et al., 2017); details in the Supplementary material; also called GST-tagged SMAD4 FL; GST-tagged SMAD4 WT; source: HEK293T, transfected, in lysate
T1 sequence (looked up): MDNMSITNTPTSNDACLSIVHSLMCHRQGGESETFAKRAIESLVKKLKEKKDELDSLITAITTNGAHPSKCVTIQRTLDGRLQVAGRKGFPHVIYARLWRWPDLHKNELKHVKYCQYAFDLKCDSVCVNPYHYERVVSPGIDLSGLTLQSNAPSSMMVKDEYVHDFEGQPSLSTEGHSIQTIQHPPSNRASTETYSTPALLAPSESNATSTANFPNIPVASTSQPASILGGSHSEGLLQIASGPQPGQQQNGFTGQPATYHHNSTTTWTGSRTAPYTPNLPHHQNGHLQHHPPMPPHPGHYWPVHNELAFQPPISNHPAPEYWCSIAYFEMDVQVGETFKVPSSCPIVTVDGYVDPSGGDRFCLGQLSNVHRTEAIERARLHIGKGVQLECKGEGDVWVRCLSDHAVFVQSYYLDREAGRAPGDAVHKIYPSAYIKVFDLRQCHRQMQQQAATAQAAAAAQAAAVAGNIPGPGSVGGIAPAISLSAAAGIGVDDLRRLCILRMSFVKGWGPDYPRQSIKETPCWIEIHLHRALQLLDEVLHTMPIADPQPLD
Nature of the assay: FRET or BRET; TR-FRET of single pairs: GST-SMAD4 (WT, domain truncations, truncation mutants) with VF-tagged partners; signal as fold change over empty vector controls. The settings on record: partners not purified.

Results on one molecule are retold here after PMC12831459, “Identification and characterization of a TGF-β-independent SMAD4–NFATc1–STAT3 regulatory axis” (Journal of Molecular Cell Biology, 2025).

B1: Venus-Flag-tagged NFATc1 (VF-NFATc1), full-length WT (natural protein, human, UniProt O95644-2 1-716, looked up)
chain: MPSTSFPVPSKFPLGPAAAVFGRGETLGPAPRAGGTMKSAEEEHYGYASSNVSPALPLPTAHSTLPAPCHNLQTSTPGIIPPADHPSGYGAALDGGPAGYFLSSGHTRPDGAPALESPRIEITSCLGLYHNNNQFFHDVEVEDVLPSSKRSPSTATLSLPSLEAYRDPSCLSPASSLSSRSCNSEASSYESNYSYPYASPQTSPWQSPCVSPKTTDPEEGFPRGLGACTLLGSPRHSPSTSPRASVTEESWLGARSSRPASPCNKRKYSLNGRQPPYSPHHSPTPSPHGSPRVSVTDDSWLGNTTQYTSSAIVAAINALTTDSSLDLGDGVPVKSRKTTLEQPPSVALKVEPVGEDLGSPPPPADFAPEDYSSFQHIRKGGFCDQYLAVPQHPYQWAKPKPLSPTSYMSPTLPALDWQLPSHSGPYELRIEVQPKSHHRAHYETEGSRGAVKASAGGHPIVQLHGYLENEPLMLQLFIGTADDRLLRPHAFYQVHRITGKTVSTTSHEAILSNTKVLEIPLLPENSMRAVIDCAGILKLRNSDIELRKGETDIGRKNTRVRLVFRVHVPQPSGRTLSLQVASNPIECSQRSAQELPLVEKQSTDSYPVVGGKKMVLSGHNFLQDSKVIFVEKAPDGHHVWEMEAKTDRDLCKPNSLVVEIPPFRNQRITSPVHVSFYVCNGKRKRSQYQRFTYLPANGNAIFLTVSREHERVGCFF
notes: NFATc1, human, Human ORFeome V8.1 clone; also called VF-tagged NFATc1 FL; VF-tagged NFATc1 WT; source: HEK293T, transfected, in lysate; in live cells for the BRET screen
With B1, the “TR-FRET PPI signal, fold-of-change (FOC) over negative controls” value is > 3 fold.
